Measurements reported in US20230242902A1, “A HIGHLY ERROR-PRONE […] R[…] FOR TARGETED CONTINUOUS EVOLUTION IN VIVO” (The Regents of the University of California, priority 2017, published 2023).

What was measured:
p1 = p1 copy number by p1-encoded mKate2 fluorescence; assay type: cell-based, S. cerevisiae
Method in brief: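 Copy number was inferred from p1-encoded mKate2 fluorescence in saturated OR-Y24 cultures (triplicate), calibrated linearly against qPCR of p1 leu2 relative to genomic LEU3.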

p2 = p2 copy number by mKate2 fluorescence calibrated with qPCR; assay type: cell-based, S. cerevisiae; details: GA-Y021
Description: To precisely measure p1 and p2 per-base substitution mutation rates, several modifications were made to the small-scale protocol. First, 36 replicates were performed for reconfirmation of candidate TP-DNAP2 mutators, and 48 replicates for genomic and mutual orthogonality experiments. Titers were also determined for each strain after spot plating by pooling the residual volume from 4 replicates and plating dilutions on YPD. The expected number of LEU2 functional mutants (m) was determined by the Ma-Sandri-Sarkar maximum likelihood estimator (as calculated by the FALCOR tool and corrected for partial plating (Foster, 2006, Methods Enzymol, 409:195-213; Sarkar et al., 1992, Genetica, 85:173-179; Hall et al., 2009, Bioinformatics, 25:1564-1565). The mean mKate2 fluorescence was determined from 50,000 event counts on Attune™ NxT Flow Cytometer and converted to p2 copy number by using a calibration curve. To determine per-base substitution rates, the corrected m was normalized to the average cell titer, the p2 copy number, and the target size for functional leu2* reversion (2.33 bp). […]
A standard curve relating p2 copy number to mKate2 fluorescence was prepared by combining quantitative PCR with flow cytometry. […] All extracts were diluted 4000-fold for use in two distinct qPCR reactions, one to quantify p2-encoded leu2* and the other to quantify the genomic copy of LEU3. […]

B1: TP-DNAP1-4-2: TP-DNAP1 variant (L477V, L640Y, I777K, W814N), encoded by SEQ ID NO:11 (protein, listed as Kluyveromyces lactis)
chain: MDYKDKALNDLRNVYADFDSLPLDFRQILIKDRATLLQKEDVEKKILERQEDAKKYAEYLKQSEIPERISLPNIKRHKGVSISFEETSEDMVLEPRPFIFDGLNIRCFRRETIFSLKNKILNMVKESSSFKNVSRQSVSFMYFKIFNKGKVIASTKSVNIYEDKIDERLEDLCNNFDDVLKKIIDVTYGYESLFVSETYSYVIFYAKSIYFPQPRCVNNWGNNIPNILTFDSFKLFTANKNNVSCIKQCSRFLWQKDFNTLEEMIEYKNGNICIVTPQLHINDVRDIKSFNDIRLYSESPIKTFSVIDNTITYLFYFKEHLGVIFNITKSRHDRRVTKFSPLSKFSDVKNITVCFDIESYFDPEKESNQVNIPFICCASIIYNKVIGNIVDFEGRDCVAQMIEYVVDICGELNISSVELIAHNGGGYDFHYILSSMYNPAAIKNILIRNNSFISFNFAHDGVKFSVKDSYSFLLCSVANASKAFLNEETFKKTDFPHHDLKTADDLYKVYKEWSSVNTEINHVVEKEKLLITSEHIVNFTKNDKSKTLIEWSKDYCRNDVLVLSKVWLEFKNAVEDIFNCELVDQTMTLAGLSYKLFQANMPFDVELRHPNKEDYFNMREALIGGRCISVNGIYKDVLCYDVKSLYPASMAFYDQPYGSFKRVSSRPKDELGIYYVRVTPNRNNKSNFFPIRSHNKITYNNFEESTYIAWYTNVDIDIGLSEGHNIEYIPFDSYGNIGYSWSKKGKIFEKYIKDVLYKLKIKYEKQNNKVKRNVIKKIMNSLWGKFAQKWVNFEYFIKSEDDIDFESEEAYKINDTDFMLIKKIKESTYSSKPIQNGVFTLSWARYHMKSIWDAGAKEGAECIYSDTDSIFVHKEHFKKNAKFMLNGLKVPIIGSEVGQLELECEFDKLLCAGKKQYMGFYTYFQDGKPCIKEKKRFKGIPSNYIIPELYAHLLSGADKEAKIQFLKFRREWGSVKGYIENKTVKAT
B1 showed a p1 copy number (p1; sustained by TP-DNAP1 variant) of ~5.

B2: w.t.: wild-type Kluyveromyces lactis DNA polymerase TP-DNAP1, SEQ ID NO:1 (protein, listed as Kluyveromyces lactis)
chain: MDYKDKALNDLRNVYADFDSLPLDFRQILIKDRATLLQKEDVEKKILERQEDAKKYAEYLKQSEIPERISLPNIKRHKGVSISFEETSEDMVLEPRPFIFDGLNIRCFRRETIFSLKNKILNMVKESSSFKNVSRQSVSFMYFKIFNKGKVIASTKSVNIYEDKIDERLEDLCNNFDDVLKKIIDVTYGYESLFVSETYSYVIFYAKSIYFPQPRCVNNWGNNIPNILTFDSFKLFTANKNNVSCIKQCSRFLWQKDFNTLEEMIEYKNGNICIVTPQLHINDVRDIKSFNDIRLYSESPIKTFSVIDNTITYLFYFKEHLGVIFNITKSRHDRRVTKFSPLSKFSDVKNITVCFDIESYFDPEKESNQVNIPFICCASIIYNKVIGNIVDFEGRDCVAQMIEYVVDICGELNISSVELIAHNGGGYDFHYILSSMYNPAAIKNILIRNNSFISFNFAHDGVKFSVKDSYSFLLCSLANASKAFLNEETFKKTDFPHHDLKTADDLYKVYKEWSSVNTEINHVVEKEKLLITSEHIVNFTKNDKSKTLIEWSKDYCRNDVLVLSKVWLEFKNAVEDIFNCELVDQTMTLAGLSYKLFQANMPFDVELRHPNKEDYFNMREALIGGRCISVNGIYKDVLCLDVKSLYPASMAFYDQPYGSFKRVSSRPKDELGIYYVRVTPNRNNKSNFFPIRSHNKITYNNFEESTYIAWYTNVDIDIGLSEGHNIEYIPFDSYGNIGYSWSKKGKIFEKYIKDVLYKLKIKYEKQNNKVKRNVIKIIMNSLWGKFAQKWVNFEYFIKSEDDIDFESEEAYKIWDTDFMLIKKIKESTYSSKPIQNGVFTLSWARYHMKSIWDAGAKEGAECIYSDTDSIFVHKEHFKKNAKFMLNGLKVPIIGSEVGQLELECEFDKLLCAGKKQYMGFYTYFQDGKPCIKEKKRFKGIPSNYIIPELYAHLLSGADKEAKIQFLKFRREWGSVKGYIENKTVKAT
In the case of B2, the “Fold-change of p1 copy number over w.t.” value (p1; G410 (w.t.) background) is reported as 1.0 ± 0.27 fold and the “Fold-change of p1 copy number over w.t.” value (p1; variant additionally carrying G410H) is reported as 1.53 ± 0.33 fold.

B3: WT: wild-type Kluyveromyces lactis DNA polymerase TP-DNAP2, SEQ ID NO:13 (protein, listed as Kluyveromyces lactis)
chain: MNDELAFLNSQIDDYSDDIEFLRTEVFRINRYSKSIYSLMKNSSKEAIKETIEFNKYGQEIHSKIKEKEISLIEAIKLMEKKYKYLRSLNKTKDKSKKKKIHTKDIETLKTIYKTKADFDIRNFKNAETFTYENYSLLIPSEKELIDLIPEIEEDYSYYFYVSLTITGPTIFGGVTRKVPIIDTYGDINKDFYNKIKENITKVLDRVPFYEEKESEIICKKVLITLTVNKWESIDKWYKNVKSKSKKFKDFTLFLASDTSKNCVQQCVEYLGGKWNTNYSLEKMIPQQKIVTYIPLLMDIQYVQSMEDLISDFDEPNTDCKNIARLLKWNGHMGVITKIDKDVKINRIQRKRIIDVENKEVKEVFFDIESFSDETKHQIPYLICWSYLGELYYRTGKNCIKEFVEEILSYNVDIILYAWYGSGYDYQHVLPYMKSKCIKDKYIIKNNMITYGELYYENAIIYLKDPYLFILTSLDKASKAFNVINKGEFPHSIIHSWEDLNKILPNWVKIQKRMIEYKDDNKLNIYYKNIEIFENDRNYNTILENAIEYCKVDVLAMEKVWIKFKKLLEKNLNITVSVKTFTLSQLSMKIMESKLPKYVKLYVPTLEEYSKIRNAIYGGRVISKNGIYEENIVYADVVSLYPSAMKLLKHSYGKPKLVDYIDFEKHGIYRVTLLNKHDQEPKNYLNFVPRRINRKLTWEWFKIHEGWYHTYDLIIAKSEGFDIYCHEGFEYPEKDYIFNDFIDTLYSMKETHTACSCEEQPCPIRMVAKIALNGGGYGKFVQKPIDKEIYIVKRDVVAGECDKLQENENGEICIGKRLVKRPLFYNLDSENYDKMIIEKEDEPIYSTQCGISILSASRYRLYKLCKQFENIDIIYSDTDSIFVKQKSVDWELFKSKCGSELGQLDSTIDDTKNAIISKMYIGGAKMYAFEYLNNKNKLITKLHCKGVPNYMLSLNQFKYLMESPDNTIAYKFEIIRRKLVNVITKDLIKDIKQT
In the case of B3, the “p2 copy number per cell” value (p2) is reported as 128.
